Tests used:
human CCR8 (human) [1] = biological target: human CCR8 (human) (UniProt P51685); experiment: binding affinity EC50, comparison of Table 12 (FACS on CCR8-expressing cells)
human CCR8 (human) [2] = biological target: human CCR8 (human) (UniProt P51685); experiment: cell-based or functional assay

Sequence of human CCR8 (human) (P51685 whole entry): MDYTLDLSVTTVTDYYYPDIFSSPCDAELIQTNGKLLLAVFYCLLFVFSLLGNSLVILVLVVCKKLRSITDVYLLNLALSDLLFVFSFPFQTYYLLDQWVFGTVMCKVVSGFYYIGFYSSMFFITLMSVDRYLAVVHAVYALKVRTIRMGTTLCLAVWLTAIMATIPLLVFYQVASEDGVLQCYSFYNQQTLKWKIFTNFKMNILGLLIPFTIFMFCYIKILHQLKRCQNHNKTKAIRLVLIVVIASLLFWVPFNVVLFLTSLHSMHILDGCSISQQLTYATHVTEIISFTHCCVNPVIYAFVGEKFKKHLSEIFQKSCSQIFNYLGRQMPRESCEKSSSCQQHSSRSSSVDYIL

- EC50 (human CCR8 (human) [1]): 3.2 nM
- Signal block Ca2+ (human CCR8 (human) [2]): 179 nM
B1: SRF-114 (antibody, from another filing, V domains shown)
VH: QVQLVQSGAEVKKPGASVKVSCKASGYTFTSYYMHWVRQAPGQGLEWMGIINPSGGSTSYAQKFQGRVTMTRDTSTSTVYMELSSLRSEDTAVYYCARAVRNRFRFDYWGQGTLVTVSS
VL: QSALTQPASVSGSPGQSITISCTGTSSDVGSYNLVSWYQQHPGKAPKLMIYEVSKRPSGVSNRFSGSKSGNTASLTISGLQAEDEADYYCSSYAGSSTFVVFGGGTKLTVL

Source: US20240352134A1
